Measurements: US20220073617A1 (published 2022)
Like-named read-outs stand apart in the source and are kept apart here.

Key:
[1] = molecular target: T1, monovalent hVISTA-ECD (amino acids 32-193 of SEQ ID NO: 1 with a 7xHis tail) (UniProt Q9H7M9 33-193); test: SPR; pH 6.0
[2] = molecular target: T1, monovalent hVISTA-ECD (amino acids …); test: SPR; pH 6.0; remark: listed apart in the source

T1 sequence (Q9H7M9 other isoform, or with tags, fused parts or gaps): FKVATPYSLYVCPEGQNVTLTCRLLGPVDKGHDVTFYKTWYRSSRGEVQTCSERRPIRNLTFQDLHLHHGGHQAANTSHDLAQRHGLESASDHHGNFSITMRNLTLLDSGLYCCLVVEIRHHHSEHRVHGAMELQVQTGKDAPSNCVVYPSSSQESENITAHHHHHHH

B1: P1-061029.IgG1.3 (antibody, V domains shown)
VH: EVQLVESGGGLVQPGKSLRLSCAASGFTLDDYAMHWVRQAPGKGLEWVSGINWNSANIGYADSVKGRFTISRDNAKNSLYLQMNSLRTEDTALYYCAKVPGYSGGWIDAFDVWGQGTMVTVSS
VL: not shown
Q: What does the source list for B1?
A: Kd [1]: 4.5 nM; Kd [2]: 4.5 nM
